Laboratory results reported in patent US20220356228A1 (ICAHN SCHOOL OF MEDICINE AT MOUNT SINAI, published 2022).
Substitutions are numbered along the chain they refer to.

B1: 3D2 (antibody, V domains shown)
VH: QVQLQQWGAGLLKPSETLSLTCAVFGGSFSSYYWSWIRHPPGKGLEWIGDINHSGSTNYNPSLKSRVTLSVDTSKNQFSLKVTSVTAADTAVYYCARWGIAADYGMDVWGQGTTVTVSS
VL: EIVLTQSPGTLSLSPGERATLSCRASQSVSSSYLAWYQQKPGQAPRLLIYGASSRATGIPDRFSDSGSGTDFTLTISRLEPEDFALYYCQQYGTSPWTFGQGTKVEIK
B2: 1A7 (antibody, V domains shown)
VH: QVQLVQSGAEVKKPGASVKVSCKASGYTFTFYDINWVRQATGQGLEWMGWMNPNSGNTGYAQNFQGRVTMTRNTSINTAYLELSSLRSEDTAVYYCARKIWVGHTTFDRWGQGTLVTVSS
VL: AIQMTQSPSSLSASVGDRVTITCRASQSISGYLNWYQQKPGKAPNLLIYAASNLQSGVPSRFSGSGSGTDFTLTISSLQREDFAPYYCQQTYNIPFTFGGGTKVEIK
B3: 4D11 (antibody, V domains shown)
VH: QVQLVESGGGLVKPGGSLRLSCAGSGFTFSDHYMSWIRQAPGKGLEWVSYISTSGRTIYYADSVKGRFTISRDNAKNSLYLQMNSLRAEDTAVYYCASDYYDNSGWYYWGQGTLVTVSS
VL: not shown
B4: 1A3 (antibody, V domains shown)
VH: B3 VH with G24A, G26E, F27I, H32Y, V48I, Y60F, E89D, Y100F, Y107E
VL: DVVMTQSPLSLSVTLGQPASISCRSSQSLVYSDGNTYLNWFQQRPGQSPRRLIYKVSDRDSGVPDRFSGSGSGTDFTLKISRAEAEDVGVYYCMQGTHWPRTFGQGTKVEIK
B5: 1E8 (antibody, V domains shown)
VH: B3 VH with G24A, R56S, Y107N
VL: B4 VL with S12P, K79R, A83V, T97S
B6: 1E12 (antibody, V domains shown)
VH: B3 VH with A23T, G24A, S54G, S104V, Y107D
VL: B4 VL with M4L, S12P, V30I, A83V
B7: 1F11 (antibody, V domains shown)
VH: B3 VH with G24A, H32L, S98G, Y107D, Q111R
VL: not shown
B8: 2A11 (antibody, V domains shown)
VH: B3 VH with G24A, A61V, T91M, S104V, Y107N, T113A
VL: B4 VL with M4L, S12P, S61F, A83V, V90I
B9: 1H10 (antibody, V domains shown)
VH: EVQLLESGGGLVQPGGSLRLSCAASGFTLSTYAMSWVRQAPGKGLEWVSAISGTGLSTYYADSLKGRFTISRDISKNTLYLQMSSLKAEDTAVYYCAKGLELFYFYYGMDVWGQGTTVTVSS
VL: EIVLTQSPGTLSLSPGERATLSCRASQSVSSTYLAWYQQKPGQAPRLLIYGTSSRATGIPDRFSGSGSGTDFTLTISRLEPEDLAVYYCQQYGRSLIFGQGTRLEIK
B10: 1G8 (antibody, V domains shown)
VH: B3 VH with G24A, H32F, K43M, T53F, T57A, K65R, R87S, S104V, Y107D, Q111P
VL: not shown
B11: 1H1 (antibody, V domains shown)
VH: B3 VH with G24A, H32F, K43M, T53F, T57A, K65R, R87S, S104V, Y107D, Q111P
VL: not shown
B12: 4E2 (antibody, V domains shown)
VH: B3 VH with G24A, H32F, K43M, T53F, T57A, K65R, R87S, S104V, Y107D, Q111P
VL: not shown
B13: 2A6 (antibody, V domains shown)
VH: QVQLQQWGAGLLKPSETLSLTCAVYGGSFSGYYWSWIRQPPGKGLEWIGDINHGGSTNYNPSLKSRVIISVDTSKNQFSLKLSSVTAADTALYYCARGWGGQVAHWFDPWGQGTLGTVSS
VL: DIVMTQSPDSLALSLGERATINCKSSQSVLFSSNNQNYLAWYQQKPGQPPKLLIYWASTRESGVPDRFSGSGSGTDFTLTVSSLQAEDVAVYFCQQYYSLPYTFGQGTKLEIK
B14: 8A7 (antibody, V domains shown)
VH: QVQLQESGPGLVKPSETLSLTCTVSGGSISSNYWNWIRQPPGKGLEWIGYIYYSGSTNYNPSLKSRVTISVDTSKNQFSLKLSSVTAADTAVYYCARRGFEQQLSYYYYYGLDVWGQGTTVTVSS
VL: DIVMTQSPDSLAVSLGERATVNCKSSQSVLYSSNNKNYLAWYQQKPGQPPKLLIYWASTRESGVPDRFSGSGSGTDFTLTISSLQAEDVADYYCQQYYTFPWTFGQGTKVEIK

Biological target: T1, JCV major capsid protein VP1, wild type (John Cunningham virus (JCV), UniProt P03089 1-354)
T1 construct: also called WT VP1; wild type VP1
Assay: ELISA, plates coated with pseudovirus, purified antibody

Row | Binder | AB conc. (lowest concentration of antibody that gave a clear signal above background) [ng/mL] | EC50 [ng/mL]
1 | B1 | < 67 | 393
2 | B2 | < 22 | 24.7
3 | B3 | < 2.5 | 1.9
4 | B4 | < 2.5 | 7.1
5 | B5 | < 2.5 | 8
6 | B6 | < 7.4 | 8.4
7 | B7 | < 7.4 | 9.4
8 | B8 | < 7.4 | 7.4
9 | B9 | < 22 | 19.3
10 | B10 | < 2.5 | 7
11 | B11 | < 2.5 | 6.5
12 | B12 | < 7.4 | 11.7
13 | B13 | < 200 | 1300
14 | B14 | – | 8.5

Biological target: T2, JCV VP1 mutant S269F (John Cunningham virus (JCV), UniProt P03089 1-354)
T2 construct: also called VP1 S269F; 269m VP1
Assay: as above

Row | Binder | AB conc. (lowest concentration of antibody that gave a clear signal above background) [ng/mL] | EC50 [ng/mL]
15 | B1 | < 22 | 121
16 | B2 | < 2.5 | 7.4
17 | B3 | < 2.5 | 6.9
18 | B4 | < 2.5 | 8
19 | B5 | < 2.5 | 22
20 | B6 | < 7.4 | 8.5
21 | B7 | < 2.5 | 7.6
22 | B8 | < 2.5 | 6.8
23 | B9 | < 7.4 | 18.5
24 | B10 | < 2.5 | 7.7
25 | B11 | < 2.5 | 7.5
26 | B12 | < 2.5 | 7.1
27 | B13 | < 22 | 147

Biological target: T3, JCV VP1 mutant L55F (John Cunningham virus (JCV), UniProt P03089 1-354)
T3 construct: also called VP1 L55F; 55m VP1
Assay: as above

Row | Binder | binding result | AB conc. (lowest concentration of antibody that gave a clear signal above background) [ng/mL] | EC50 [ng/mL]
28 | B1 | no binding (tested: 2.5 ng/ml to 200 ng/ml) | – | –
29 | B2 | no binding (tested: 2.5 ng/ml to 200 ng/ml) | – | –
30 | B3 | – | < 2.5 | 7.7
31 | B4 | – | < 2.5 | 14.3
32 | B5 | – | < 22 | 46.5
33 | B6 | – | < 2.5 | 7.7
34 | B7 | – | < 7.4 | 14.3
35 | B8 | – | < 7.4 | 13.6
36 | B10 | – | < 2.5 | 16.7
37 | B11 | – | < 2.5 | 14.7
38 | B12 | – | < 2.5 | 13.2
39 | B13 | no binding (tested: 2.5 ng/ml to 200 ng/ml) | – | –

Biological target: T2, JCV VP1 mutant S269F
Assay: cell-based or functional assay

Row | Binder | Neutralization of JCV S269F: EC50 [pM]
40 | B1 | 733
41 | B2 | 7
42 | B3 | 12.7
43 | B4 | 37.3
44 | B5 | 55.3
45 | B6 | 105
46 | B7 | 53
47 | B8 | 250
48 | B9 | 20.9
49 | B10 | 22.7
50 | B11 | 55.3
51 | B12 | 30

Biological target: T3, JCV VP1 mutant L55F
Assay: cell-based or functional assay

Row | Binder | Neutralization of JCV L55F: EC50 [pM]
52 | B3 | 245
53 | B4 | 6600
54 | B5 | 3380
55 | B6 | 56.7
56 | B7 | 76
57 | B8 | 45.5
58 | B10 | 511

Biological target: T1, JCV major capsid protein VP1, wild type
Assay: cell-based or functional assay

Row | Binder | Neutralization of wild type JCV, EC50 [pM]
59 | B1 | 2250
60 | B2 | 180
61 | B3 | 124
62 | B4 | 301
63 | B5 | 127
64 | B6 | 16
65 | B7 | 111
66 | B8 | 146
67 | B9 | 155
68 | B10 | 144
69 | B11 | 182
70 | B12 | 160
71 | B13 | 2710
